According to US20040005554A1 (APPLIED RESEARCH SYSTEMS ARS HOLDING N V, published 2004):

Biological target: the molecule itself
Assay: SDS-PAGE (silver stain) and anti-FLAG western blot of immunoaffinity-purified protein, with and without reduction

B1: FLAG-BRP fusion protein (N-terminal FLAG tag on predicted mature human BRP, secreted through the mouse preprotrypsin signal) (other)
chain: DYKDDDDKASSGNLRTFVGCAVREFTFLAKKPGCRGLRITTDACWGRCETWEKPILEPPYIEAHHRVCTYNETKQVTVKLPNCAPGVDPFYTYPVAIRCDCGACSTATTECETI
notes: The BRP part comes from BRP-NTAP (BRP without the secretory signal peptide); also called FLAG-BRP in pCEP4
binding result: binds
